Test results from the supplement of paper PMC7125110.
± gives the standard error. For some assays here: Fewer inactive variants are shown than the library holds.

B1: glmS ribozyme (parent)
chain: AUAAAAGCGCCAGAACUACAGAAAUGUAGUUGACGAGGAGGAGGUUUAUCGAAUUUUCGGCGGAUGCCUCCAAA

Experiments:
Conditions in all cases: with glucosamine-6-phosphate
glucosamine-6-phosphate [1] = variants of: B1; test: kcat; higher = faster cleavage; RNA array
Method in brief: (§1)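 Barcoded ribozyme variants, transcribed in situ by E. coli RNA polymerase on sequenced MiSeq chips, were followed via a hybridised Cy3 probe at 37 °C. Glucosamine-6-phosphate ranged from 40 μM to 10 mM in HEPES/KCl/Mg(OAc)2 buffer. kobs came from decay fits to per-tile medians, and kcat and KM from weighted Michaelis–Menten fits.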

glucosamine-6-phosphate [2] = variants of: B1; test: self-cleavage kobs at 640 uM GlcN6P; higher = faster cleavage; RNA array
Method in brief: as §1

glucosamine-6-phosphate [3] = variants of: B1; test: KM; higher = weaker cofactor use; RNA array
Method in brief: as §1

glucosamine-6-phosphate [4] = variants of: B1; test: self-cleavage kobs at 2500 uM GlcN6P; higher = faster cleavage; RNA array
Method in brief: as §1

glucosamine-6-phosphate [5] = variants of: B1; test: self-cleavage kobs at 10000 uM GlcN6P; higher = faster cleavage; RNA array
Method in brief: as §1

glucosamine-6-phosphate [6] = variants of: B1; test: self-cleavage kobs at 160 uM GlcN6P; higher = faster cleavage; RNA array
Method in brief: as §1

glucosamine-6-phosphate [7] = variants of: B1; test: self-cleavage kobs at 40 uM GlcN6P; higher = faster cleavage; RNA array
Method in brief: as §1

Variant	kcat (glucosamine-6-phosphate [1])	self-cleavage kobs at 640 uM GlcN6P (glucosamine-6-phosphate [2])	KM (glucosamine-6-phosphate [3])	self-cleavage kobs at 2500 uM GlcN6P (glucosamine-6-phosphate [4])	self-cleavage kobs at 10000 uM GlcN6P (glucosamine-6-phosphate [5])	self-cleavage kobs at 160 uM GlcN6P (glucosamine-6-phosphate [6])	self-cleavage kobs at 40 uM GlcN6P (glucosamine-6-phosphate [7])
G7U A36C A48U	< 1e-05 s⁻¹	< 1e-05 s⁻¹	–	–	–	–	–
C11G A14U C70A	3.61e-05 ± 1.3e-05 s⁻¹	–	–	–	–	–	–
A15G G29C U31C A39U	0.000143 ± 2.1e-06 s⁻¹	–	4650 ± 160 µM	5.02e-05 ± 1.3e-05 s⁻¹	9.79e-05 ± 1.4e-05 s⁻¹	–	–
U55C A64C	1.63e-05 ± 1.9e-06 s⁻¹	–	–	–	–	< 1e-05 s⁻¹	–
C16A G38U	< 1e-05 s⁻¹	–	–	< 1e-05 s⁻¹	–	–	–
G37A U46G	0.000363 ± 0.00014 s⁻¹	0.000102 ± 1.4e-05 s⁻¹	–	0.000159 ± 2.3e-05 s⁻¹	0.000421 ± 6.2e-05 s⁻¹	4.31e-05 ± 1.7e-05 s⁻¹	–
G35U G59U G66U	< 1e-05 s⁻¹	< 1e-05 s⁻¹	–	–	–	–	–
U45G C70U	0.00681 ± 0.0021 s⁻¹	0.00288 ± 0.0004 s⁻¹	562 ± 260 µM	0.00473 ± 0.00096 s⁻¹	0.0102 ± 0.0013 s⁻¹	0.00139 ± 0.00018 s⁻¹	0.000542 ± 5.6e-05 s⁻¹
C11U A14U G38A C50U U65G	2.42e-05 ± 9.7e-06 s⁻¹	–	–	–	–	–	–
A52U U65G	9.59e-05 ± 1.1e-06 s⁻¹	–	9460 ± 180 µM	–	4.93e-05 ± 1.8e-05 s⁻¹	< 1e-05 s⁻¹	< 1e-05 s⁻¹
A12U U45A A53U	0.125 ± 0.042 s⁻¹	–	1100 ± 390 µM	–	–	–	0.00437 ± 0.0009 s⁻¹
G13U A36C	< 1e-05 s⁻¹	–	–	–	< 1e-05 s⁻¹	–	–
C10U G66A	1.5e-05 ± 2.3e-06 s⁻¹	–	–	–	–	–	–
A36G U55C	1.01e-05 ± 4e-06 s⁻¹	–	–	–	–	–	–
G37U G38C	< 1e-05 s⁻¹	–	–	< 1e-05 s⁻¹	–	< 1e-05 s⁻¹	< 1e-05 s⁻¹
A12C A23C U54G C70A	0.00013 ± 1.8e-05 s⁻¹	0.000146 ± 2.1e-05 s⁻¹	–	0.000103 ± 1.9e-05 s⁻¹	0.000154 ± 2.8e-05 s⁻¹	–	8.19e-05 ± 2.8e-05 s⁻¹
G7U C67G	< 1e-05 s⁻¹	–	–	< 1e-05 s⁻¹	–	–	–
C34G G63U C68G	2.21e-05 ± 7.4e-06 s⁻¹	–	–	–	–	–	–
C11U A52G	0.000164 ± 8e-06 s⁻¹	4.15e-05 ± 1e-05 s⁻¹	1690 ± 270 µM	0.000109 ± 1.8e-05 s⁻¹	0.000139 ± 1.1e-05 s⁻¹	–	–

Variant	kcat (glucosamine-6-phosphate [1])	self-cleavage kobs at 640 uM GlcN6P (glucosamine-6-phosphate [2])	KM (glucosamine-6-phosphate [3])	self-cleavage kobs at 2500 uM GlcN6P (glucosamine-6-phosphate [4])	self-cleavage kobs at 10000 uM GlcN6P (glucosamine-6-phosphate [5])	self-cleavage kobs at 160 uM GlcN6P (glucosamine-6-phosphate [6])	self-cleavage kobs at 40 uM GlcN6P (glucosamine-6-phosphate [7])
G32A C67U C71G	8.98e-05 ± 2.5e-05 s⁻¹	0.000178 ± 4.1e-05 s⁻¹	–	9.42e-05 ± 2.9e-05 s⁻¹	5.54e-05 ± 2.2e-05 s⁻¹	9.79e-05 ± 2.3e-05 s⁻¹	5.63e-05 ± 2.5e-05 s⁻¹
A53G U69G	6.03e-05 ± 8.2e-06 s⁻¹	6.89e-05 ± 1.2e-05 s⁻¹	–	5.73e-05 ± 9.6e-06 s⁻¹	5.13e-05 ± 8e-06 s⁻¹	0.000101 ± 1.8e-05 s⁻¹	5.96e-05 ± 1e-05 s⁻¹
A6G U46G C68U	3.96e-05 ± 1.9e-05 s⁻¹	–	–	4.82e-05 ± 2.3e-05 s⁻¹	–	–	–
G13A C68G	1.81e-05 ± 5e-06 s⁻¹	–	–	–	–	–	–
G29U U45C	0.000348 ± 1.1e-05 s⁻¹	7.89e-05 ± 3.4e-05 s⁻¹	2130 ± 200 µM	0.000204 ± 0.0001 s⁻¹	0.000286 ± 4.9e-05 s⁻¹	–	–
U57G	0.000109 ± 3.4e-06 s⁻¹	2.22e-05 ± 1.9e-06 s⁻¹	2910 ± 250 µM	4.95e-05 ± 1.4e-06 s⁻¹	8.52e-05 ± 1.5e-06 s⁻¹	–	–
G62U C67G C68U	1.17e-05 ± 4.6e-06 s⁻¹	–	–	–	–	–	–
U31G A53C	0.00293 ± 0.00056 s⁻¹	0.000646 ± 0.00015 s⁻¹	2500 ± 770 µM	0.00165 ± 0.00028 s⁻¹	0.00219 ± 0.00037 s⁻¹	0.000223 ± 5.6e-05 s⁻¹	3.19e-05 ± 1.2e-05 s⁻¹
A12C G59A	< 1e-05 s⁻¹	–	–	–	–	< 1e-05 s⁻¹	< 1e-05 s⁻¹
C10A C71A	1.51e-05 ± 2.9e-06 s⁻¹	–	–	–	–	–	–
U31G U47A	0.00848 ± 0.0027 s⁻¹	0.00211 ± 0.00035 s⁻¹	2290 ± 990 µM	0.00332 ± 0.00063 s⁻¹	0.00821 ± 0.0011 s⁻¹	0.000474 ± 7e-05 s⁻¹	0.000201 ± 2.8e-05 s⁻¹
G29C U46G	0.000315 ± 9.7e-05 s⁻¹	7.38e-05 ± 2.1e-05 s⁻¹	–	0.000285 ± 7.3e-05 s⁻¹	0.000234 ± 7.5e-05 s⁻¹	–	–
A53U C70G	0.000152 ± 2.3e-05 s⁻¹	0.000133 ± 1.5e-05 s⁻¹	168 ± 74 µM	0.000136 ± 2.3e-05 s⁻¹	0.000142 ± 2.6e-05 s⁻¹	6.88e-05 ± 7.7e-06 s⁻¹	8.15e-05 ± 2.5e-05 s⁻¹
C58U C61U	< 1e-05 s⁻¹	< 1e-05 s⁻¹	–	–	–	–	< 1e-05 s⁻¹
A14C U54G	0.00619 ± 0.0017 s⁻¹	0.00107 ± 0.00016 s⁻¹	3310 ± 1300 µM	0.00296 ± 0.00041 s⁻¹	0.00448 ± 0.00056 s⁻¹	0.000219 ± 3.6e-05 s⁻¹	0.00011 ± 1.7e-05 s⁻¹
G13A A15G	0.000875 ± 0.00018 s⁻¹	0.000327 ± 5.6e-05 s⁻¹	1840 ± 670 µM	0.000431 ± 7.3e-05 s⁻¹	0.000784 ± 0.00011 s⁻¹	6.23e-05 ± 1.3e-05 s⁻¹	–
G13U A39C	0.000234 ± 2e-05 s⁻¹	2.78e-05 ± 6e-06 s⁻¹	4490 ± 600 µM	8.65e-05 ± 1e-05 s⁻¹	0.000158 ± 2.7e-05 s⁻¹	–	–
G51U A52G	< 1e-05 s⁻¹	< 1e-05 s⁻¹	–	< 1e-05 s⁻¹	–	–	< 1e-05 s⁻¹
C11A U54A	0.000163 ± 1.3e-05 s⁻¹	5.49e-05 ± 1.4e-05 s⁻¹	1490 ± 400 µM	9.05e-05 ± 1.9e-05 s⁻¹	0.000145 ± 1.4e-05 s⁻¹	–	–
